Assay [1] concerns the target T1, GST-EPS15 (1-314) (human, UniProt P42566).
T1 construct: stop codon at 315 (S315*) in pGEX-5X-1; Printed molecular weight 60,924.7; also called GST-EPS15 EH1-3; source: E. coli BL21 codon plus RIL, purified (glutathione-Sepharose); not shown: GST, N-terminal, kept
The assay can be described thus: pull-down; GST fusion (50 μg, or increasing amounts) immobilised on glutathione-Sepharose; Nb in clarified E. coli periplasmic extract adjusted to 125 mM sodium chloride; 4°C, 60 min; supernatant and pellet on Coomassie-stained gels. Particulars: one partner purified.

A further assay addresses T2, GST-EPS15R (1-365) (Homo sapiens, UniProt Q9UBC2).
T2 construct: Epidermal growth factor receptor substrate 15R (EPS15R, gene EPS15L1), H. sapiens, residues 1-365 (stop T366*), in pGEX-5X-1; also called EPS15R EH1R-3R; source: E. coli BL21 codon plus RIL, purified (glutathione-Sepharose)
The assay is described as above. Particulars: one partner purified.

Assay [2] deals with T3, EPS15R in K-562 cell lysate (human (endogenous in K-562), UniProt Q9UBC2).
T3 construct: Epidermal growth factor receptor substrate 15R, endogenous in K-562 cells
T3 sequence (Q9UBC2 whole entry): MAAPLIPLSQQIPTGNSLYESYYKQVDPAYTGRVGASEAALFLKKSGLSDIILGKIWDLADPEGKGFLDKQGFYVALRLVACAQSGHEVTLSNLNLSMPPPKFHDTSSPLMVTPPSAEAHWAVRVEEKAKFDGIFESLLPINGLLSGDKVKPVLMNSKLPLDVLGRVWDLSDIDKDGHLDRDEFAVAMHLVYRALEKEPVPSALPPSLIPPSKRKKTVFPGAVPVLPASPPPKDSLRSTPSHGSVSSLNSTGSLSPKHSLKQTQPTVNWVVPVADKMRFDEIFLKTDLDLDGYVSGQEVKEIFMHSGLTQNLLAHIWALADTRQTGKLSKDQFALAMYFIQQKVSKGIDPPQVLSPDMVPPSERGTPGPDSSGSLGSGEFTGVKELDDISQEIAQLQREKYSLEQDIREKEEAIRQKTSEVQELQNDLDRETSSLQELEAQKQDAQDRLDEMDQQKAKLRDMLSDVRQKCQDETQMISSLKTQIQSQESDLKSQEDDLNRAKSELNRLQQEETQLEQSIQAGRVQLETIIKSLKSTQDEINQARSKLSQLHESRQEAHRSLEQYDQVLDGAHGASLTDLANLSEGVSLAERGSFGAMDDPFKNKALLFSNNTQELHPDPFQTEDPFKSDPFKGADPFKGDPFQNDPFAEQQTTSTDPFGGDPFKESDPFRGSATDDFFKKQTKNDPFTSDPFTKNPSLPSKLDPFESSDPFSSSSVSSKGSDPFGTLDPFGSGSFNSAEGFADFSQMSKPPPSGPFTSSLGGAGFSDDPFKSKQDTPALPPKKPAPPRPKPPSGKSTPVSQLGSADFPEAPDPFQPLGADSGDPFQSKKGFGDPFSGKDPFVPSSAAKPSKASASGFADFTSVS
The assay can be described thus: pull-down; called immunoprecipitation; purified His6-tagged Nb E_142 bound to Ni-NTA-agarose; K-562 cell lysate or rat brain cytosol; immunoblots. Particulars: one partner purified. (Immunoblotting shows a protein as a band on a membrane.)

In assay [3] the target is T4, native Eps15 in rat brain cytosol (Rattus norvegicus (brain cytosol, …, UniProt A0A8I5YC99)).
T4 construct: Eps15, endogenous in rat brain cytosol; source: endogenous, rat brain cytosol
The assay is described as above. Particulars: one partner purified.

Assay [4] has as its target T1, GST-EPS15 (1-314). Put plainly: pull-down; quantitative titration; Nb E_142 fixed at 2 μM, immobilised GST-EPS15 (1-109) 0.5-20 μM or (1-314) 0.25-10 μM; PBS with 100 μg/ml BSA, 4°C, 60 min, 400 μl; Nb band in the supernatant quantified; apparent KD (half-maximal binding). The settings on record: both partners purified.
The next assay concerns the target T5, GST-EPS15 (1-109) (Homo sapiens, UniProt P42566).
T5 construct: stop codon L110* in pGEX-5X-1; Printed molecular weight 38,271.3; also called EH1; source: E. coli BL21 codon plus RIL, purified (glutathione-Sepharose); not shown: GST, N-terminal, kept
The assay is described as above. Particulars: both partners purified.

The target of assay [5] is T6, endogenous EPS15 in HeLa cells (Homo sapiens, UniProt P42566).
T6 construct: Epidermal growth factor receptor substrate 15, endogenous in HeLa cells, stained with anti-EPS15 antibodies; source: endogenous, HeLa SS6 and HeLa clone #40 cells
T6 sequence (P42566 whole entry): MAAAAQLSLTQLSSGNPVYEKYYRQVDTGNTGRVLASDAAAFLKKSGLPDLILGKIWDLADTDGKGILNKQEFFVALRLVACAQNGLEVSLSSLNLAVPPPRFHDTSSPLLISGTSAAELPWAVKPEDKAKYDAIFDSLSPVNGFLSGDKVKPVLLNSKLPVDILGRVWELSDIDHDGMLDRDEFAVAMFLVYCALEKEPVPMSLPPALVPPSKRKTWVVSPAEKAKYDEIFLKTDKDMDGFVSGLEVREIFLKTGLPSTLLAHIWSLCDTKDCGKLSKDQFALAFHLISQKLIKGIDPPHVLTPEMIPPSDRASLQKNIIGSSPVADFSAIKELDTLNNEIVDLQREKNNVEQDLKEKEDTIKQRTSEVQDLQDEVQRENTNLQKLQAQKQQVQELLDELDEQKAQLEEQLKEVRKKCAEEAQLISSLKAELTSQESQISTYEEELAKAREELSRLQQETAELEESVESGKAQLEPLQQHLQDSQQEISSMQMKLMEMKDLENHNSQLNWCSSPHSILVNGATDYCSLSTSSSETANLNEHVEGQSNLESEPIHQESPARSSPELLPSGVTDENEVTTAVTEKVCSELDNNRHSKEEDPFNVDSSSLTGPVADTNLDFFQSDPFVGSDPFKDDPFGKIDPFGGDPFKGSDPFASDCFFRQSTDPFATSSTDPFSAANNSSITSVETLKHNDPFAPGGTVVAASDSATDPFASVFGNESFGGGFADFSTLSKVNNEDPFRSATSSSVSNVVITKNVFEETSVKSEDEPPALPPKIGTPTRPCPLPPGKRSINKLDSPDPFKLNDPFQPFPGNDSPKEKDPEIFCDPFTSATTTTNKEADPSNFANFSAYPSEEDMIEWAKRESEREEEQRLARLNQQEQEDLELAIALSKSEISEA
The assay can be described thus: immunostaining of cells or tissue; relocalisation in cells: Nb E_142 fusion tethered to endosomes (GFP-FYVE2) or mitochondria (Akap1) in transfected HeLa cells; endogenous EPS15 stained with antibodies, confocal microscopy; controls without the Nb module. The settings on record: partners not purified.

T1 sequence (P42566 1-314): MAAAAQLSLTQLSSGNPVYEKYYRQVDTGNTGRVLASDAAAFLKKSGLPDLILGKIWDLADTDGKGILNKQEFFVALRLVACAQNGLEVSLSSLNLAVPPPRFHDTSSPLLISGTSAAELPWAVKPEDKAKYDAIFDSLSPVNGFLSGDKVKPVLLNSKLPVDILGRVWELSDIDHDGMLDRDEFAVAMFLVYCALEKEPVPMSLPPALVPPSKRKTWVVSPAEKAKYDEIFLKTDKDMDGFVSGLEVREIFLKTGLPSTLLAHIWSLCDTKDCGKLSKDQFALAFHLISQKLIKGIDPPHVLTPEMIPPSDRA
T5 sequence (P42566 1-109): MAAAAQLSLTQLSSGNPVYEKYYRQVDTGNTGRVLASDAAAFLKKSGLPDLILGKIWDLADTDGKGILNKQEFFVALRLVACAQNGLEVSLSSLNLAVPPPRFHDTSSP
T2 sequence (Q9UBC2 1-365): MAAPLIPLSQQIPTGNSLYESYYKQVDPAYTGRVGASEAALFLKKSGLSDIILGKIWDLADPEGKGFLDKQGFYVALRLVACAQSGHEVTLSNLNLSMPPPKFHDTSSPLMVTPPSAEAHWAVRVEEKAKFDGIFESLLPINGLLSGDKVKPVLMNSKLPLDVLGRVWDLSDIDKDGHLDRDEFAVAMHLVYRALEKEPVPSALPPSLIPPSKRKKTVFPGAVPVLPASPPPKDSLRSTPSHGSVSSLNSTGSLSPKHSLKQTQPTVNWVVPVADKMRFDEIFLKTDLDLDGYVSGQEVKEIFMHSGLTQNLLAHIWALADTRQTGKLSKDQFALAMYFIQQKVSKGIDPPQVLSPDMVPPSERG

B1: Nb E_3 (VHH)
VHH: QVQLQESGGGLVQAGGSLRLSCAASGSIFSINAMGWYRQAPGKQRELVAAITSGGTTNYADSVKGRFTISRDNAKNTLYLQMNSLKPEDTAVYYCNLGGLRNPFGSWGQGTQVTVSS
notes: NPF tripeptide in CDR3, placed differently from that of Nb E_142; also called Nb E_3-His6; source: E. coli XL1-Blue (pHEN6c), periplasmic extract
B1: in the assay with GST-EPS15 (1-314) [1], the binding result was “binds”.

B2: Nb E_180 (VHH)
VHH: QVQLQESGGGSVQAGGSLRLSCAASGSIFSVNLMGWYREAPGKATEFVATVTAGGYTNVADSLKDRFTISMDNAKNTVYLQMNNLKPEDTAVYYCNMKSMNPFRRYDVWGQGTQVTVSS
notes: CDR3 identical to that of Nb E_142, 18 amino acid differences from Nb E_142; also called Nb E_180-His6; source: E. coli XL1-Blue (pHEN6c), periplasmic extract
B2: the binding result with GST-EPS15 (1-314) [1] is recorded as “binds”.

B3: Nb E_142 (VHH)
VHH: QVQLQESGGGLVQAGGSLRLSCAASGFISSSSTMGWYRPAPGKQRELVASISSGGTTNYAESVKGRFTISRDNAKNTVYLQMDSLKPEDTAVYYCNMKSMNPFRRYDVWGQGTQVTVSS
notes: NPF(R) tripeptide in CDR3; Printed molecular weight of Nb E_142-His6: 13,683.2; also called Nb E_142-His6; His6-tagged Nb E_142; source: E. coli XL1-Blue (pHEN6c), periplasmic extract; also purified from the periplasmic extract (Ni-NTA-agarose, Sephacryl S-100); not shown: His6, C-terminal, kept
For B3, the binding result (with GST-EPS15R (1-365); in assay [2]; in assay [3]) was “binds” throughout. Besides, the Kd in the assay with GST-EPS15 (1-314) [4] is roughly 2000 nM; with GST-EPS15 (1-109), roughly 3000 nM.

B4: GFP-FYVE2-desNb E_142 (VHH)
VHH: QVQLQESGGGLVQAGGSLRLSCAASGFISSSSTMGWYRPAPGKQRELVASISSGGTTNYAESVKGRFTIRRDNAKNTVYLQMDSLKPEDTAVYYYNMKSMNPFRRYDVWGQGTQVTVSF
notes: Four glycine residues between the second FYVE domain and the Nb; also called GFP-FYVE2-dNb E_142; 3maj conditionally destabilized Nb E_142; source: HeLa SS6, transiently transfected, in cells; not shown: GFP, N-terminal, kept; tandem FYVE domain (FYVE2), N-terminal, kept
Take B4: the binding result in assay [5] is “binds”.
